Experiment [1] addresses Na+/K+ ATPase α-1 on mouse Lewis Lung LL/2 cancer cells (mouse) (UniProt Q8VDN2). The experiment is described as follows: flow cytometry, 5 µg/ml, EDTA-treated intact mouse LL/2 cells. A general note: A flow cytometer gives signals particle by particle.
For experiment [2] the target is unchanged. The experiment in a line: flow cytometry, 5 µg/ml, trypsin-treated intact mouse LL/2 cells.
Experiment [3] has the same target. The experiment is described as follows: flow cytometry, 5 µg/ml, EDTA-treated permeabilized mouse LL/2 cells.

This is an account of results in US20210032364A1.

With “mAb to Na+/K+ ATPase α-1 (Abcam, Cat. No. ab2826) (antibody)”, the % cells stained worked out at 29.9% in experiment [1], 20.5% in experiment [2] and 63.8% in experiment [3].
